Experimental data: article PMC9263355, “Galectin-3 Decreases 4-1BBL Bioactivity by Crosslinking Soluble and Membrane Expressed 4-1BB” (Frontiers in Immunology, 2022)

Target: T1, recombinant human (rh)4-1BB Fc chimera protein (human, UniProt Q07011 24-186)
T1 construct: human 4-1BB (CD137/TNFRSF9), the part of it in the R&D Systems Fc chimera; Glycosylated; also called CD137; TNFRSF9; source: bought: R&D Systems
Experiment: fluorescence polarisation; fluorescence anisotropy in solution, by inhibition: fixed galectin (0.2-2.5 µM) with 0.02 µM of its fluorescent probe, in the presence of 0.07-4.75 µM (rh)4-1BB Fc or (rh)IgG1 Fc; average Kd from the points with ≥ 15% inhibition
Details: both partners purified

T1 sequence (Q07011 24-186, change not shown): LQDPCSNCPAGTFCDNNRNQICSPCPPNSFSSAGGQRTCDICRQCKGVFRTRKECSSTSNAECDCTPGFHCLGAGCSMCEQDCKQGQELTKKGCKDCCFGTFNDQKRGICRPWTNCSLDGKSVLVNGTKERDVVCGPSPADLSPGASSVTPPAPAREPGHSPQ

Kd: 6.12 µM
B1: recombinant human galectin-2 (natural protein, UniProt P05162 1-132, looked up)
chain: MTGELEVKNMDMKPGSTLKITGSIADGTDGFVINLGQGTDKLNLHFNPRFSESTIVCNSLDGSNWGQEQREDHLCFSPGSEVKFTVTFESDKFKVKLPDGHELTFPNRLGHSHLSYLSVRGGFNMSSFKLKE
notes: human galectin-2; also called Gal-2
